Experimental data reported in paper PMC3942289, “Characterization of Ten Heterotetrameric NDP-Dependent Acyl-CoA Synthetases of the Hyperthermophilic Archaeon Pyrococcus furiosus” (Archaea, 2014).

What was measured:
ACS4-G = molecular target: T1, ACS4-G (Pyrococcus furiosus, UniProt E7FHP1+Q8U1W9); conditions: reverse reaction; 20 mM acid, 1 mM ATP or GTP, 0.5 mM CoA, 2 mM MgCl2, pH 7.0, 80°C
T1 construct: gene PF1085

ACS2-G = molecular target: T2, ACS2-G (Pyrococcus furiosus, UniProt E7FHP1+Q8U3D6); conditions: reverse reaction; 20 mM acid, 1 mM ATP or GTP, 0.5 mM CoA, 2 mM MgCl2, pH 7.0, 80°C
T2 construct: gene acdAII

ACS3-G = molecular target: T3, ACS3-G (Pyrococcus furiosus, UniProt E7FHP1+Q8U461); conditions: reverse reaction; 20 mM acid, 1 mM ATP or GTP, 0.5 mM CoA, 2 mM MgCl2, pH 7.0, 80°C
T3 construct: gene PF0233

[1] = substrate: CC(C)CC(=O)SCCNC(=O)CCNC(=O)[C@H](O)C(C)(C)COP(=O)(O)OP(=O)(O)OC[C@H]1O[C@@H](n2cnc3c(N)ncnc32)[C@H](O)[C@@H]1OP(=O)(O)O; assay: DTNB assay of released CoASH, 96-well; type: biochemical, Pyrococcus furiosus; conditions: forward reaction, 2 mM ADP, 10 mM K2HPO4, 2 mM MgCl2, pH 7.0, 80°C
Source text: (§1) DTNB assay of released CoASH, 96-well on ACS5-A

[2] = substrate: CC(=O)SCCNC(=O)CCNC(=O)[C@H](O)C(C)(C)COP(=O)(O)OP(=O)(O)OC[C@H]1O[C@@H](n2cnc3c(N)ncnc32)[C@H](O)[C@@H]1OP(=O)(O)O; assay: DTNB assay of released CoASH, 96-well; type: biochemical, Pyrococcus furiosus; conditions: forward reaction, 2 mM ADP, 10 mM K2HPO4, 2 mM MgCl2, pH 7.0, 80°C
Source text: as §1

[3] = substrate: CC(C)C(=O)SCCNC(=O)CCNC(=O)[C@H](O)C(C)(C)COP(=O)(O)OP(=O)(O)OC[C@H]1O[C@@H](n2cnc3c(N)ncnc32)[C@H](O)[C@@H]1OP(=O)(O)O; assay: DTNB assay of released CoASH, 96-well; type: biochemical, Pyrococcus furiosus; conditions: forward reaction, 2 mM ADP, 10 mM K2HPO4, 2 mM MgCl2, pH 7.0, 80°C
Source text: as §1

T2 sequence (Q8U3D6 whole entry): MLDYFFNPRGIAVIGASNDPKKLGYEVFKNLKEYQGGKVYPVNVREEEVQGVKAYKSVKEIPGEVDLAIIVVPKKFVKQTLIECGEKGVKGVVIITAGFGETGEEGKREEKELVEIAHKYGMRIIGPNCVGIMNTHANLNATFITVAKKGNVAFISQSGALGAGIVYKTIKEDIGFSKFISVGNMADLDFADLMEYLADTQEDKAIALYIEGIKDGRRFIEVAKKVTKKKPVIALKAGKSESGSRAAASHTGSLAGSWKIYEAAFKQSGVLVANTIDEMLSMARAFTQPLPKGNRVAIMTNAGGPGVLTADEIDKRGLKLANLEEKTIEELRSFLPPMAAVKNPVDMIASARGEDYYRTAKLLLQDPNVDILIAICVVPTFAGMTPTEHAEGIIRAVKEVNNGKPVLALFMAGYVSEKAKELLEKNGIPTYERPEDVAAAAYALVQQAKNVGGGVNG
T2 sequence (E7FHP1 whole entry): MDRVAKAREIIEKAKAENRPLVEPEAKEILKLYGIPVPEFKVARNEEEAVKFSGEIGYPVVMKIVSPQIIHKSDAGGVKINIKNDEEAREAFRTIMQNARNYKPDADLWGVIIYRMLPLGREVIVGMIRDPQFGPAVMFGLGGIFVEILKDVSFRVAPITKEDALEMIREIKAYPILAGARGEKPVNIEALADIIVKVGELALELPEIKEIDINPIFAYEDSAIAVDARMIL
T3 sequence (Q8U461 1-465): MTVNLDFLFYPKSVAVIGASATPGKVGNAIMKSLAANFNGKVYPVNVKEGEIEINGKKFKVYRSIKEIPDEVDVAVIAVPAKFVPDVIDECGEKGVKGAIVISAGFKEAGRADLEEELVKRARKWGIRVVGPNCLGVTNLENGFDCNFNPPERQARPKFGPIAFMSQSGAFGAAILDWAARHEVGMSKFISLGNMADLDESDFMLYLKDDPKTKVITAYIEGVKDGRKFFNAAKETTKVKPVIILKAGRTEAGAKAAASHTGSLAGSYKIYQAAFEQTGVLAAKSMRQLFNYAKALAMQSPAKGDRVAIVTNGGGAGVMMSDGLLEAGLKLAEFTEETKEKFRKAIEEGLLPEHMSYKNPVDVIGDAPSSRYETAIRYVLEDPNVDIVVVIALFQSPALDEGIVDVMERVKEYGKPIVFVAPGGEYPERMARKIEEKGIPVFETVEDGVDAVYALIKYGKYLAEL
T3 sequence (E7FHP1 whole entry): as the sequence (E7FHP1 whole entry) above
T1 sequence (Q8U1W9 1-442): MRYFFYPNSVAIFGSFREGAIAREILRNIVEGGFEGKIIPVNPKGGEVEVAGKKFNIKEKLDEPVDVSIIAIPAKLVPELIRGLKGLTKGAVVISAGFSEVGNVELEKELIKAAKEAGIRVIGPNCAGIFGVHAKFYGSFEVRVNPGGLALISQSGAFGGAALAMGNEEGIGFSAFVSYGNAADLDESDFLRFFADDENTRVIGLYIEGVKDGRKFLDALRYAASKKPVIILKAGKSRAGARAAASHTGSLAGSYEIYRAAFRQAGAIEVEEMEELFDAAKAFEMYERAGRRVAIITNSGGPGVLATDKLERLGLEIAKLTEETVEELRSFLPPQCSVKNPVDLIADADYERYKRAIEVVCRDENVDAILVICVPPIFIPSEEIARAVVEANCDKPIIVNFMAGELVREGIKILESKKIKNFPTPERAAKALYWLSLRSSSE
T1 sequence (E7FHP1 whole entry): as the sequence (E7FHP1 whole entry) above

Molecule: O=C(O)Cc1c[nH]cn1 [imidazole 4-acetate]
- relative activity (ACS4-G): ACS4 was the only isoenzyme that shows significant activity with imidazole 4-acetate

Molecule: CSCCC(=O)O [3-methylthiopropionate]
- relative activity (ACS2-G): Surprisingly, ACS2 was also active with 3-methylthiopropionate

Molecule: O=C(O)CCC(=O)O [succinate]
- relative activity (ACS3-G): The only isoenzyme that showed activity with succinate was ACS3

B1: ACS5-A (Pyrococcus furiosus DSM 3638) (protein)
chain 1: MINNLDIKEQLRSFFDPKAVAIIGATNKKGKVGNVIFENFKRNKERGIFKGNIYPVNPKLDEIDGYKVYHSVEELPDDTDLAVVAIPAPAVPETMRKIAEKGIKAVVIITGGFGELGEEGKRMEQEILEIARAHGIRVIGPNCVGVYVPDTGVDTVFLPEEKMDRPKSGPIAFVSQSGAFAAAMLDWAAMAGIGIGKMVSYGNKIDVDDADLMEYFAQDEQIKVMTFYIEGVKDGRRFMEVAKRVTKIKPIIALKSGRTEYGAKAASSHTGSLAGQDVIYDAVFKQTGIIRAEDFEHMFDLAKAFAKCKLPKGDRIGIITDGGGAGVMASDAVAKFGLKLAELSEETLRFLREKFPPHAVVGNPTDVVGDTDAERYRLALEAFTKDPNVDAILVIVLFQVPLLDEEEVIEIIADYAKKSDKPIVAVSMGGYKTDRYAKMLEEKGVPVYPTPERGVRALAGLVRYAEYLRKMGE
chain 2: MKGEALKIIEEVLAQGRTAMVEYEAKQVLKAYGLPVPEEKLAKTLDEALKYAEEIGYPVAMKLMSPQILHKSDAKVVMLNIKSPEELKKKWEEIHENARKYRPDAEIFGVLIAPMLKPGREVIIGVTEDPQFGHAIMFGLGGIFVEILKDVTFRIIPITEKDARKMITEIKAYPILAGARGEEPADIEAIVDMLLKVSKLVDDLKDYIKEMDLNPVFVYRKGEGAVVVDARIILKG
notes: alpha (pET24a) and beta-A (pET21b) coexpressed in E. coli BL21(DE3) pRIL, untagged, heat-treated and desalted; alpha2beta2 ~140 kDa; The same primer pair is printed for PF1838 and PF1837 (probable misprint)
- Km [1]: 820 ± 407 µM
- kcat/Km [1]: 120000 M⁻¹ s⁻¹
- Km [2]: 620 ± 1.0 µM
- kcat/Km [2]: 112000 M⁻¹ s⁻¹
- Km [3]: 2730 ± 1080 µM
- kcat/Km [3]: 83000 M⁻¹ s⁻¹
